According to US20200024322A1 (Eli Lilly, published 2020):
Numbered stars: 1 amine (or outer) side, 2 acyl side, 3 side chain; on linkers, the order of the positions; unused ones are H or OH. Square brackets hold non-standard residues; d marks the D form. Side chains are listed from the residue outwards. Ends that are not written are not given here. * marks the point of attachment. C20 diacid = O=C(O)CCCCCCCCCCCCCCCCCCC(=O)*; γGlu = O=C(O)[C@H](CCC(=O)[*:2])N[*:1]; αMeL = CC(C)C[C@](C)(N)C(=O)O; AEEA = NCCOCCOCC(=O)O; Aib = CC(C)(N)C(=O)O

B1: Example 54 (peptide)
peptide: H[Aib]EGTFTSDYSI[αMeL]LDKK([AEEA-AEEA-γGlu-C20 diacid])AQHAFIEYLIEGGPSSGAPPPS-NH2
modifications: N-terminus assumed
SMILES: CC[C@H](C)[C@H](NC(=O)[C@H](CC(C)C)NC(=O)[C@H](Cc1ccc(O)cc1)NC(=O)[C@H](CCC(=O)O)NC(=O)[C@@H](NC(=O)[C@H](Cc1ccccc1)NC(=O)[C@H](C)NC(=O)[C@H](Cc1c[nH]cn1)NC(=O)[C@H](CCC(N)=O)NC(=O)[C@H](C)NC(=O)[C@H](CCCCNC(=O)COCCOCCNC(=O)COCCOCCNC(=O)CC[C@H](NC(=O)CCCCCCCCCCCCCCCCCCC(=O)O)C(=O)O)NC(=O)[C@H](CCCCN)NC(=O)[C@H](CC(=O)O)NC(=O)[C@H](CC(C)C)NC(=O)[C@](C)(CC(C)C)NC(=O)[C@@H](NC(=O)[C@H](CO)NC(=O)[C@H](Cc1ccc(O)cc1)NC(=O)[C@H](CC(=O)O)NC(=O)[C@H](CO)NC(=O)[C@@H](NC(=O)[C@H](Cc1ccccc1)NC(=O)[C@@H](NC(=O)CNC(=O)[C@H](CCC(=O)O)NC(=O)C(C)(C)NC(=O)[C@@H](N)Cc1c[nH]cn1)[C@@H](C)O)[C@@H](C)O)[C@@H](C)CC)[C@@H](C)CC)C(=O)N[C@@H](CCC(=O)O)C(=O)NCC(=O)NCC(=O)N1CCC[C@H]1C(=O)N[C@@H](CO)C(=O)N[C@@H](CO)C(=O)NCC(=O)N[C@@H](C)C(=O)N1CCC[C@H]1C(=O)N1CCC[C@H]1C(=O)N1CCC[C@H]1C(=O)N[C@@H](CO)C(N)=O
B2: Example 67 (peptide)
peptide: YXEGTFTSDYSILLDKKAQXAXIEYLIEGGPSSGAPPPS
modifications: Aib2; K17((2-[2-(2-Amino-ethoxy)-ethoxy]-acetyl)2-(γ-Glu)-CO-(CH2)18-CO2H); Aib20; αMeF22; C-terminal NH2
B3: Example 68 (peptide)
peptide: YXEGTFTSDYXILLDKKAQXAFIEYLIEGGPSSGAPPPS
modifications: Aib2; αMeS11; K17((2-[2-(2-Amino-ethoxy)-ethoxy]-acetyl)2-(γ-Glu)-CO-(CH2)18-CO2H); Aib20; C-terminal NH2
B4: Example 51 (peptide)
peptide: Y[Aib]EGTFTSDYSILLDKK([AEEA-AEEA-γGlu-C20 diacid])AQ[Aib]AFIEYLIEGG-NH2
modifications: N-terminus assumed
SMILES: CC[C@H](C)[C@H](NC(=O)[C@H](CC(C)C)NC(=O)[C@H](Cc1ccc(O)cc1)NC(=O)[C@H](CCC(=O)O)NC(=O)[C@@H](NC(=O)[C@H](Cc1ccccc1)NC(=O)[C@H](C)NC(=O)C(C)(C)NC(=O)[C@H](CCC(N)=O)NC(=O)[C@H](C)NC(=O)[C@H](CCCCNC(=O)COCCOCCNC(=O)COCCOCCNC(=O)CC[C@H](NC(=O)CCCCCCCCCCCCCCCCCCC(=O)O)C(=O)O)NC(=O)[C@H](CCCCN)NC(=O)[C@H](CC(=O)O)NC(=O)[C@H](CC(C)C)NC(=O)[C@H](CC(C)C)NC(=O)[C@@H](NC(=O)[C@H](CO)NC(=O)[C@H](Cc1ccc(O)cc1)NC(=O)[C@H](CC(=O)O)NC(=O)[C@H](CO)NC(=O)[C@@H](NC(=O)[C@H](Cc1ccccc1)NC(=O)[C@@H](NC(=O)CNC(=O)[C@H](CCC(=O)O)NC(=O)C(C)(C)NC(=O)[C@@H](N)Cc1ccc(O)cc1)[C@@H](C)O)[C@@H](C)O)[C@@H](C)CC)[C@@H](C)CC)C(=O)N[C@@H](CCC(=O)O)C(=O)NCC(=O)NCC(N)=O
B5: Example 2 (peptide)
peptide: YXEGTXTSDYSIXLDXKAQXEFIXYLIEGGPSSGAPPPS
modifications: Aib2; αMeF(2F)6; αMeL13; Orn16; K17((2-[2-(2-Amino-ethoxy)-ethoxy]-acetyl)2-(γ-Glu)-CO-(CH2)16-CO2H); Aib20; D-Glu24; C-terminal NH2
B6: Example 57 (peptide)
peptide: YXEGTXTSDYSILLDKKAQXAFIEYLIEGGPSSGAPPPS
modifications: Aib2; αMeF6; K17((2-[2-(2-Amino-ethoxy)-ethoxy]-acetyl)2-(γ-Glu)-CO-(CH2)18-CO2H); Aib20; C-terminal NH2
B7: Example 3 (peptide)
peptide: YXEGTXTSDYSIXLDXKAQXEFIXYLIEGGPSSGAPPPS
modifications: Aib2; αMeF(2F)6; αMeL13; Orn16; K17((2-[2-(2-Amino-ethoxy)-ethoxy]-acetyl)2-(γ-Glu)-CO-(CH2)18-CO2H); Aib20; D-Glu24; C-terminal NH2
B8: Example 60 (peptide)
peptide: YXEGTFTSDYSIXLDXKAQXAFIEYLIEGGPSSGAPPPS
modifications: Aib2; αMeL13; Aib16; K17((2-[2-(2-Amino-ethoxy)-ethoxy]-acetyl)2-(γ-Glu)-CO-(CH2)18-CO2H); Aib20; C-terminal NH2
B9: Example 59 (peptide)
peptide: YXEGTFTSDYSIXLDEKAQXAFIEYLIEGGPSSGAPPPS
modifications: Aib2; αMeL13; K17((2-[2-(2-Amino-ethoxy)-ethoxy]-acetyl)2-(γ-Glu)-CO-(CH2)18-CO2H); Aib20; C-terminal NH2
B10: Example 115 (peptide)
peptide: YXEGTXTSDYSIXLDEKAQXAFIEYLIEGGPSSGAPPPS
modifications: Aib2; αMeF6; αMeL13; K17((2-[2-(2-Amino-ethoxy)-ethoxy]-acetyl)2-(γ-Glu)-CO-(CH2)18-CO2H); Aib20; C-terminal NH2
B11: Example 116 (peptide)
peptide: YXEGTXTSDYSIXLDEKAQXEFIEYLIEGGPSSGAPPPS
modifications: Aib2; αMeF6; αMeL13; K17((2-[2-(2-Amino-ethoxy)-ethoxy]-acetyl)2-(γ-Glu)-CO-(CH2)18-CO2H); Aib20; C-terminal NH2
B12: Example 20 (peptide)
peptide: YXEGTFTSDYSIXLDKKAQXAFIEYLIEGGPSSGAPPPS
modifications: Aib2; αMeL13; K17((2-[2-(2-Amino-ethoxy)-ethoxy]-acetyl)2-(γ-Glu)-CO-(CH2)18-CO2H); Aib20; C-terminal NH2

Tests used:
human GIP receptor = biological target: T1, human GIP receptor (human, UniProt P48546 22-466); assay: SPA, [125I]-GIP displacement, hGIPR membranes
T1 construct: whole, on cells; Used as crude membranes of stably transfected CHO cells; also called hGIPR
T1 sequence (looked up): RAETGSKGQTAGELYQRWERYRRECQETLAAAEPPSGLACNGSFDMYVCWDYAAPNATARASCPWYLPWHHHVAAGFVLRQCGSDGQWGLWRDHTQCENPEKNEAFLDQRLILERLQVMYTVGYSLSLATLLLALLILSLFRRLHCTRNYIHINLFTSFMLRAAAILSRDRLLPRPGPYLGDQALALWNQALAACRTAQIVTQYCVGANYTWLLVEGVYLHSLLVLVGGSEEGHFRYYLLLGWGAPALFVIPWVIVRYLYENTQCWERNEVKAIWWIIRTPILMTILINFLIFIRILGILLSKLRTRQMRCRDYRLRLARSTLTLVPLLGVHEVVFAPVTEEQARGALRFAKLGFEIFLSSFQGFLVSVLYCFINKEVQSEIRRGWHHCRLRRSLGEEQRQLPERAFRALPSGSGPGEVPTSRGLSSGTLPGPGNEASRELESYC

human glucagon receptor = biological target: T2, human glucagon receptor (human, UniProt P47871 26-477); assay: SPA, [125I]-Gcg displacement, hGcgR membranes
T2 construct: whole, on cells; Used as crude membranes of stably transfected HEK293 cells; also called hGcgR; hGLcgR
T2 sequence (P47871 26-477): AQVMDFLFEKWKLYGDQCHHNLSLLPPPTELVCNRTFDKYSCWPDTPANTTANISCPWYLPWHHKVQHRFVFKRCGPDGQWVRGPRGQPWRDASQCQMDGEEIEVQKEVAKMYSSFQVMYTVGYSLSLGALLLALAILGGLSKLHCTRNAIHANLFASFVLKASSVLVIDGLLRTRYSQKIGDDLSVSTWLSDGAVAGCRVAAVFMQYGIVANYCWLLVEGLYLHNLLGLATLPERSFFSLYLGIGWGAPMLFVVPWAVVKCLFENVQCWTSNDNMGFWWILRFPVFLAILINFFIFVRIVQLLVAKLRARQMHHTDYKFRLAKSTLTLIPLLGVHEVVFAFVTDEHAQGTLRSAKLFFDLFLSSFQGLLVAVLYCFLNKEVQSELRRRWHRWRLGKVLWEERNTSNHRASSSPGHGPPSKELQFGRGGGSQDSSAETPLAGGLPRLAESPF

human GLP-1 receptor = biological target: T3, human GLP-1 receptor (human, UniProt P43220 24-463); assay: SPA, [125I]-GLP-1 displacement, hGLP-1R membranes
T3 construct: whole, on cells; Used as crude membranes of stably transfected HEK293 cells; also called hGLP1R; hGLP-1R

| Binder | Ki (human GIP receptor) [nM] | Ki (human glucagon receptor) [nM] | Ki (human GLP-1 receptor) [nM] |
| --- | --- | --- | --- |
| B1 | 0.965 | 333 | 1.66 |
| B2 | 0.061 | 270 | 10.2 |
| B3 | 0.0243 | 99.2 | 1.58 |
| B4 | 0.062 | 195 | 5.62 |
| B5 | 0.06 | 361 | 2.35 |
| B6 | 0.0583 | 26.1 | 3 |
| B7 | 0.0458 | 242 | 2.23 |
| B8 | 0.0655 | 237 | 9.55 |
| B9 | 0.136 | 292 | 8.2 |
| B10 | 0.0302 | 9.89 | 3.43 |
| B11 | 0.0597 | 137 | 6.8 |
| B12 | 0.0849 | 228 | 3.3 |
